Source: publication PMC5430821

Biological target: rat synaptotagmin 2 fused to the DCTM exosome-sorting peptide, displayed on exosomes (rat) (UniProt P29101)
Test: SPR; […] (1 µM); […], single-cycle kinetics, 1:1 model, […]; 25 °C, HBS pH 7.4, 150 mM NaCl

Chain of UniProt P29101 (P29101 whole entry, the tested form may be a part): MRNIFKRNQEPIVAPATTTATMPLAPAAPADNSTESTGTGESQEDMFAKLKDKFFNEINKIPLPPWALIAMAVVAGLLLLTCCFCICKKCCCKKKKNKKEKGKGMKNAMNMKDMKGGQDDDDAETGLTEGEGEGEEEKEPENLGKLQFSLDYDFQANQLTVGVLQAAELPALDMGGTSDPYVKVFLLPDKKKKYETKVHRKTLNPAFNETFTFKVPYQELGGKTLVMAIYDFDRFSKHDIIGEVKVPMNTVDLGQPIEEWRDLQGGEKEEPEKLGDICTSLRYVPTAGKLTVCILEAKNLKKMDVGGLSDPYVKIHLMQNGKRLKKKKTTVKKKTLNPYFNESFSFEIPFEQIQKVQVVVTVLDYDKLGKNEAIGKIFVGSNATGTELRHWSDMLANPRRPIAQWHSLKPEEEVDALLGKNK

Substance	Kd	koff	kon
BoNT/B (B1 Okra strain) neurotoxin with non-toxic accessory proteins (complex)	1.4 nM	0.00041 s⁻¹	310000 M⁻¹ s⁻¹
BoNT/B holotoxin (B1), pure botulinum neurotoxin type B (natural protein)	0.6 nM	0.00013 s⁻¹	230000 M⁻¹ s⁻¹
